± gives the standard deviation of the averaged measurements.
Tested on: Saccharomyces cerevisiae
Experiment: protein stability index of tFT-peptide fusion (C-terminal peptide) (PSI (0-1 scale)); higher = more stable (slower turnover)
Conditions: temperature: 30 C
Procedure: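 MPS profiling in S. cerevisiae of the yeast C-terminome library: the last 12 aa of each annotated ORF are fused to the C-terminus of a sfGFP-mCherry timer, after a GGGS linker. Cells are FACS-sorted into 8 mCherry/sfGFP bins and deep-sequenced. PSI runs from 0 (unstable) to 1 (stable); wild type and das1Δ backgrounds, two technical replicates each.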

[1] = genetic background: das1 deletion

Row | Sequence | protein stability index [1] | protein stability index (genetic background: wild type)
1 | AIFLFLVGLFMK [UBC6 C-terminal 12 aa] | 0.289 ± 0.011 | 0.297 ± 0.017
2 | SGNNLGICFYKE [NUP170 C-terminal 12 aa] | 0.6733 ± 0.005 | 0.677 ± 0.019
3 | IQQTNSFLREII [YDL211C C-terminal 12 aa] | 0.692 ± 0.0098 | 0.7056 ± 0.0041
4 | WRFLGIVKSPNT [YDR510C-A C-terminal 12 aa] | 0.6815 ± 0.0017 | 0.693 ± 0.013
5 | KIPKTYSELSCL [DUN1 C-terminal 12 aa] | 0.693 ± 0.042 | 0.669 ± 0.037
6 | HNDNSGTVLGTA [RBD2 C-terminal 12 aa] | 0.7 ± 0.017 | 0.728 ± 0.032
7 | KRSLTLPVGMKI [AIM44 C-terminal 12 aa] | 0.683 ± 0.026 | 0.658 ± 0.02
8 | TKWHDKFGKLKN [SHE2 C-terminal 12 aa] | 0.693 ± 0.024 | 0.6795 ± 0.0042
9 | ISIEELAQYLKK [RIB3 C-terminal 12 aa] | 0.70628 ± 0.00065 | 0.672 ± 0.049
10 | ITSKRKAELLLK [DIS3 C-terminal 12 aa] | 0.723 ± 0.062 | 0.7544 ± 0.007
11 | EEQINGKRKRKD [YJR107C-A C-terminal 12 aa] | 0.672 ± 0.0096 | 0.674 ± 0.022
12 | RQNDKGAIKKSK [YEA4 C-terminal 12 aa] | 0.676 ± 0.019 | 0.719 ± 0.049
13 | IDSIDDLVDSDT [NPP1 C-terminal 12 aa] | 0.6907 ± 0.0066 | 0.685 ± 0.015
14 | RSRSINGDWRKD [PAN5 C-terminal 12 aa] | 0.6835 ± 0.0046 | 0.6967 ± 0.0028
15 | GGLDCKSNVFMR [PAC1 C-terminal 12 aa] | 0.697 ± 0.013 | 0.723 ± 0.0089
16 | ICKALVKQDLGL [LAP2 C-terminal 12 aa] | 0.6972 ± 0.002 | 0.657 ± 0.035
17 | FVKPGEICLREQ [RDH54 C-terminal 12 aa] | 0.712 ± 0.039 | 0.701 ± 0.014
18 | KDETPEDNLEDK [VBA3 C-terminal 12 aa] | 0.6896 ± 0.00088 | 0.653 ± 0.017
19 | EISNRDENSIPE [MUB1 C-terminal 12 aa] | 0.7214 ± 0.004 | 0.677 ± 0.026
20 | GAAIAGAAAMLL [TIR3 C-terminal 12 aa] | 0.718 ± 0.014 | 0.713 ± 0.022
21 | EILGTDEPTVRT [PGM1 C-terminal 12 aa] | 0.693 ± 0.015 | 0.7 ± 0.014

Row | Sequence | protein stability index [1] | protein stability index (genetic background: wild type)
22 | EYEPFVMYIINL [VMA5 C-terminal 12 aa] | 0.6058 ± 0.001 | 0.545 ± 0.0069
23 | SKLNAVHTANEK [SEC8 C-terminal 12 aa] | 0.712 ± 0.016 | 0.686 ± 0.022
24 | GTKEYCKMIDFL [YLR108C C-terminal 12 aa] | 0.704 ± 0.014 | 0.688 ± 0.019
25 | MKFNVISFLFHK [NAM2 C-terminal 12 aa] | 0.688 ± 0.011 | 0.615 ± 0.011
26 | TAYFICGMVIQL [YDL041W C-terminal 12 aa] | 0.349 ± 0.014 | 0.34 ± 0.011
27 | DVKLLPPPKKRN [NUC1 C-terminal 12 aa] | 0.67982 ± 0.00038 | 0.6883 ± 0.0014
28 | AHRENIAFPPQF [YHR033W C-terminal 12 aa] | 0.739 ± 0.0092 | 0.744 ± 0.067
29 | EEDEEDEENEEQ [UBX2 C-terminal 12 aa] | 0.716 ± 0.016 | 0.693 ± 0.043
30 | VVGFYFQGALSE [VNX1 C-terminal 12 aa] | 0.673 ± 0.025 | 0.708 ± 0.037
31 | KRLTSRLNKKHK [SPN1 C-terminal 12 aa] | 0.6937 ± 0.0067 | 0.69 ± 0.046
32 | LAFRAHTMPNAP [ATO3 C-terminal 12 aa] | 0.699 ± 0.0097 | 0.694 ± 0.033
33 | ESFEKQGKIIYN [MOB2 C-terminal 12 aa] | 0.681 ± 0.0097 | 0.685 ± 0.042
34 | KVIFKDRPLPIM [CTF8 C-terminal 12 aa] | 0.643 ± 0.032 | 0.611 ± 0.012
35 | TLTQEEINELST [LTE1 C-terminal 12 aa] | 0.69603 ± 0.00028 | 0.689 ± 0.041
36 | GEVVKTIIFGPE [SOR1 C-terminal 12 aa] | 0.7 ± 0.017 | 0.696 ± 0.029
37 | IKKYNITSPFLD [NSE4 C-terminal 12 aa] | 0.696 ± 0.022 | 0.686 ± 0.004
38 | WARRSFSSYDLC [GID11 C-terminal 12 aa] | 0.7053 ± 0.0036 | 0.694 ± 0.011
39 | KNEDSEVEDDLI [CUS2 C-terminal 12 aa] | 0.703 ± 0.042 | 0.67 ± 0.0098
40 | ANTDKNNNPPGN [SNG1 C-terminal 12 aa] | 0.698 ± 0.016 | 0.751 ± 0.07
41 | TCEACGNRWKFS [DST1 C-terminal 12 aa] | 0.7329 ± 0.0019 | 0.697 ± 0.013
42 | IIRSEKKKKEEQ [YBR292C C-terminal 12 aa] | 0.748 ± 0.041 | 0.659 ± 0.039

Row | Sequence | protein stability index [1] | protein stability index (genetic background: wild type)
43 | QIAFAWQNKPRL [PXP1 C-terminal 12 aa] | 0.815 ± 0.029 | 0.793 ± 0.045
44 | FANKSSSGGDEV [YIL089W C-terminal 12 aa] | 0.6849 ± 0.0047 | 0.672 ± 0.028
45 | KYNSQKRATTPA [COQ4 C-terminal 12 aa] | 0.712 ± 0.027 | 0.6698 ± 0.0039
46 | YQGVIYGIDGDQ [POP2 C-terminal 12 aa] | 0.699 ± 0.012 | 0.689 ± 0.041
47 | WAIESVDENWRF [TOP1 C-terminal 12 aa] | 0.746 ± 0.032 | 0.773 ± 0.04
48 | YKDDEDDDIEMT [PDS5 C-terminal 12 aa] | 0.679 ± 0.011 | 0.685 ± 0.051
49 | EKKSKKEKKEKK [NOP58 C-terminal 12 aa] | 0.747 ± 0.07 | 0.717 ± 0.04
50 | ATRKALETARSA [MRPL13 C-terminal 12 aa] | 0.718 ± 0.0076 | 0.728 ± 0.036
51 | GKSSKKKNRSRK [SSH4 C-terminal 12 aa] | 0.726 ± 0.052 | 0.692 ± 0.018
52 | VKDRPRGKDARL [RML2 C-terminal 12 aa] | 0.727 ± 0.058 | 0.805 ± 0.029
53 | VWLAAALPLAFI [PRM7 C-terminal 12 aa] | 0.58 ± 0.0063 | 0.56 ± 0.018
54 | GILCSLMEFFTN [TDA6 C-terminal 12 aa] | 0.727 ± 0.053 | 0.712 ± 0.059
55 | PAAVFAETLKHD [RPL4B C-terminal 12 aa] | 0.686 ± 0.016 | 0.705 ± 0.011
56 | SLKPSEKKLYYL [NTH2 C-terminal 12 aa] | 0.721 ± 0.0073 | 0.663 ± 0.02
57 | VFLYRKRIFIKL [GWT1 C-terminal 12 aa] | 0.606 ± 0.021 | 0.485 ± 0.023
58 | YNINDLYKSLTR [MAK32 C-terminal 12 aa] | 0.7059 ± 0.0029 | 0.711 ± 0.023
59 | IGPLAFLVFKTA [DYN2 C-terminal 12 aa] | 0.67 ± 0.02 | 0.18 ± 0.011
60 | YLGAKTGSLIDF [KAR5 C-terminal 12 aa] | 0.702 ± 0.015 | 0.721 ± 0.026
61 | MLYTSYQSIFGV [AVT4 C-terminal 12 aa] | 0.707 ± 0.015 | 0.706 ± 0.0086
